The target in assay [1] is SARS-CoV-2 RBD protein (321–591) (SARS-CoV-2) (UniProt P0DTC2). Description: SPR. (In general: SPR reads the build-up and loss of mass on a sensor chip optically.)
Assay [2] has the same target.

Usually Kd stands for the equilibrium constant for the complex coming apart. A higher Kd goes with a looser complex. In assay [1], P2B-2F6 (antibody) showed a Kd of 0.81 nM. The same substance registered an other in assay [2] of 37.5 µg/mL.

(Values after article PMC8442604.)
